Among the data in publication PMC4835703, “Cellular uptake of exogenous calcineurin B is dependent on TLR4/MD2/CD14 complexes, and CnB is an endogenous ligand of TLR4” (Scientific Reports, 2016) are Kd values, retold here.

This assay concerns the target T1, recombinant calcineurin B (UniProt P63098 1-170).
T1 construct: calcineurin B (CnB), regulatory subunit of calcineurin; recombinant protein (rhCnB); also called CnB; rhCnB; source: provided by Haikou Qili Pharmaceutical Co., Ltd
Briefly: MST; purified TLR4 ectodomain or soluble CD14 labelled with DyLight 488, 20 nM in MST buffer; CnB titrated in 16 1:1 dilutions; 10 min incubation; Monolith NT.115, 25 °C, 50% LED power, 20% MST power. As to conditions: both partners purified.

B1: soluble CD14 (receptor)
chain: TTPEPCELDDEDFRCVCNFSEPQPDWSEAFQCVSAVEVEIHAGGLNLEPFLKRVDADADPRQYADTVKALRVRRLTVGAAQVPAQLLVGALRVLAYSRLKELTLEDLKITGTMPPLPLEATGLALSSLRLRNVSWATGRSWLAELQQWLKPGLKVLSIAQAHSPAFSCEQVRAFPALTSLDLSDNPGLGERGLMAALCPHKFPAIQNLALRNTGMETPTGVCAALAAAGVQPHSLDLSHNSLRATVNPSAPRCMWSSALNSLNLSFAGLEQVPKGLPAKLRVLDLSCNRLNRAPQPDELPEVDNLTLDGNPFLVPGTALPHEGSMN
modifications: labelled with DyLight 488 in the MST experiment and where it was the soluble partner in the ELISA; unlabelled where coated on the plate and in the co-IP
notes: CD14, soluble recombinant form; also called sCD14; purified soluble CD14; source: bought: Sino Biological, Inc
In general, Kd refers to the equilibrium constant for the complex coming apart. In the case of B1, the Kd is 1010 nM.
